Measurements taken from US20090092595A1, “Suppression of sPLA2-integrin binding for treating an inflammatory condition” (REGENTS OF THE UNIVERSITY OF CALIFORNIA, priority 2007, published 2009).

Molecular target: T1, integrin αvβ3 on β3-CHO cells (UniProt A0A9J7JSN3+P05106)
T1 construct: expressed in transfected cells; host or cells: CHO
T1 sequence (P05106 27-788): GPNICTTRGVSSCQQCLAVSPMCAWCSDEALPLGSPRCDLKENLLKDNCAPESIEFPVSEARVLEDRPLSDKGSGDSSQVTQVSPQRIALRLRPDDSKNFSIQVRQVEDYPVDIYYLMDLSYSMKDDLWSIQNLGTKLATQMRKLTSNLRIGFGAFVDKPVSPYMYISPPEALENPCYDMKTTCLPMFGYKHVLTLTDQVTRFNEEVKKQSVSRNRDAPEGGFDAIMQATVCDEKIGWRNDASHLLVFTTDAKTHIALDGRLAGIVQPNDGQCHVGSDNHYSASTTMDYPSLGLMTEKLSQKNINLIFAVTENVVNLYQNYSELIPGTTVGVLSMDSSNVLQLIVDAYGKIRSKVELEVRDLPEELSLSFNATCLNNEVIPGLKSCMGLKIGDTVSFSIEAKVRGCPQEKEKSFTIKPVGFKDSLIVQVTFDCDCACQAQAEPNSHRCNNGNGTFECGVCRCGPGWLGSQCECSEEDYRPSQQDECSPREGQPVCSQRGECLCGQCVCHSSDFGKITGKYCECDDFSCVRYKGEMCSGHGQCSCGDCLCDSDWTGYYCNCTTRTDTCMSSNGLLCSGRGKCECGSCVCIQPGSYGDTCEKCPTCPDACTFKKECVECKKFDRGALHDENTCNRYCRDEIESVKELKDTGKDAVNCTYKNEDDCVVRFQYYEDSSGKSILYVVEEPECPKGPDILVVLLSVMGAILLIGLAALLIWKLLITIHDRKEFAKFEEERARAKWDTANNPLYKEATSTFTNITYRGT
T1 sequence (A0A9J7JSN3 31-1043): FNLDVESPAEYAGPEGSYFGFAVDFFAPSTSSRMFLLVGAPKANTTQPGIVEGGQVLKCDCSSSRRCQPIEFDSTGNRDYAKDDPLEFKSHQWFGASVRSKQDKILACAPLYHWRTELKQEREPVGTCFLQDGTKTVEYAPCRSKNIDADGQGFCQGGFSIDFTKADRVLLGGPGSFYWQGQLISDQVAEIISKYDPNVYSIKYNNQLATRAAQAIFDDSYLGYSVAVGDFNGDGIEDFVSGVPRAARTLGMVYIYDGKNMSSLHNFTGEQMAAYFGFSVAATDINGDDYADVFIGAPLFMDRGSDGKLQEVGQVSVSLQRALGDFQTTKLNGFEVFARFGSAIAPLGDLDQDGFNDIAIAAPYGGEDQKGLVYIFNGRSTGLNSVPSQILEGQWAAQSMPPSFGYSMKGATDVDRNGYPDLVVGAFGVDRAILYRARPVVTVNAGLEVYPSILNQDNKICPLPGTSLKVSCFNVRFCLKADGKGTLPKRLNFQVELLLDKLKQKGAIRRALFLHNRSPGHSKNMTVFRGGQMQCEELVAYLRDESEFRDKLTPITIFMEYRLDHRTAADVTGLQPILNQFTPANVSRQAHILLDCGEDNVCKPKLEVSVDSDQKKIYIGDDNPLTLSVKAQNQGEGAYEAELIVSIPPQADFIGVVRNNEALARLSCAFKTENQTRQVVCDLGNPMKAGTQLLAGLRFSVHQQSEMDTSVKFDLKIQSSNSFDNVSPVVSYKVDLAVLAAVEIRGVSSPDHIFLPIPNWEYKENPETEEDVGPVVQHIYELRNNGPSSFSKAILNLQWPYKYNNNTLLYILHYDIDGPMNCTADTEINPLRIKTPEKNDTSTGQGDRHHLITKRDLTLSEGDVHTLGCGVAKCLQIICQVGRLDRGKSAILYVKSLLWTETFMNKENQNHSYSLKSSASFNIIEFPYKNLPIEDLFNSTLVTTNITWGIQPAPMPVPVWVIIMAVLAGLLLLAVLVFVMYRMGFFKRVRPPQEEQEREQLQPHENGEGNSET
Assay: Adhesion of cells expressing recombinant αvβ3 (β3-CHO, β3-745) to immobilized sPLA2-IIA
Type: cell-based, human
Conditions: compared with mock-transfected cells
Description: FIG. 1. sPLA2-IIA binding to integrin αvβ3. a) Cell adhesion to sPLA2-IIA in an αvβ3- and proteoglycans-dependent manner. Wells of a 96-well microtiter plate were coated with sPLA2-IIA at indicated coating concentrations. Remaining protein-binding sites were blocked with BSA. CHO cells expressing recombinant αvβ3 (β3-CHO), mock-transfected CHO cells, proteoglycans-deficient CHO cell variant (pgs745), expressing recombinant αvβ3 (β3-745), and mock-transfected pgs745 cells (10^5 cells per well in 100 μl Tyrodes-HEPES with 1 mM MgCl2) were added to the wells. After incubating for 1 h at 37° C., unbound cells were removed by gentle rinsing and bound cells were quantified using endogenous phosphatase activity (Prater, C. A. et al., J. Cell Biol., 112:1031-1040 (1991)). Data is shown as means+/−SEM of triplicate experiments. b) Effect of anti-(33 mAb 7E3 on adhesion of β3-CHO cells to immobilized sPLA2-IIA. […] Bound FITC (FL1) and PE (FL2) were quantified in flow cytometry. […] Bound αvβ3 was detected using peroxidase-conjugated anti-6His antibody. Bound peroxidase activity was measured. […]

B1: wt sPLA2-IIA: Secretory phospholipase A2 group IIA, wild type, recombinant from bacteria BL21, refolded (protein)
chain: NLVNFHRMIKLTTGKEAALSYGFYGCHCGVGGRGSPKDATDRCCVTHDCCYKRLEKRGCGTKFLSYKFSNSGSRITCAKQDSCRSQLCECDKAAATCFARNKTTYNKKYQYYSNKHCRGSTPRC
modifications: left off: small tags and cut ends
  adhesion of β3-CHO and β3-745 cells to immobilized sPLA2-IIA: much higher level than mock-transfected CHO or 745 cells
